From publication PMC6628623, “Effects of Destruxin A on Silkworm’s Immunophilins” (Toxins, 2019)
Where a SMILES comes first, the peptide text is derived from it. [ ]: non-standard residue; d: D form. dLac(3-vinyl) = C=CC[C@@H](O)C(=O)O; NMeV = CN[C@H](C(=O)O)C(C)C; NMeA = CN[C@@H](C)C(=O)O; βAla = NCCC(=O)O

How the values were obtained:
[1] = biological target: Bmo.3174 (predicted B. mori cell division cycle 5-like protein, BmCDC5), DNA-binding-domain fusion (Bombyx mori (silkworm)); test: two-hybrid; insect two-hybrid (I2H) in Spodoptera frugiperda Sf-9 cells co-transfected with AD, DBD and PIE-Luc vectors; luciferase read-out (lumen value) against untransfected Sf-9 cells (CK, 40); 27 °C
BmPPI = biological target: T1, BmPPI (Bombyx mori, UniProt Q1HQ20); test: bio-layer interferometry, His-tagged protein on Ni-NTA biosensor; assay type: binding
T1 construct: cyclophilin superfamily
T1 sequence (Q1HQ20 1-171): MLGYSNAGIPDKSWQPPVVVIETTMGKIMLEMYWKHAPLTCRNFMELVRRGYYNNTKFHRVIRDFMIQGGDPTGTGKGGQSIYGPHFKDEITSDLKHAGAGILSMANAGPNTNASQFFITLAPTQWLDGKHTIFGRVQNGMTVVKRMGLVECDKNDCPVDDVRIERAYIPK
Text: bio-layer interferometry, His-tagged protein on Ni-NTA biosensor on BmPPI

lumen value (luciferase, I2H) [1] | Compound | Kd (BmPPI) [µM]
580 | peptidyl-prolyl cis-trans isomerase (BmPPI), activation-domain fusion (natural protein) | 
 | C=CC[C@H]1OC(=O)CCNC(=O)[C@H](C)N(C)C(=O)[C@H](C(C)C)N(C)C(=O)[C@H]([C@@H](C)CC)NC(=O)[C@@H]2CCCN2C1=O [DA, Destruxin A] (cyclo(I[NMeV][NMeA][βAla][dLac(3-vinyl)]P)) | 1980
